What was measured:
Settings in all cases: both partners purified
[1] = molecular target: T1, N(1–320), bacterially expressed (Chandipura virus, UniProt P11211 1-320); assay: pull-down; His-tag co-elution after 1% DOC treatment of the N variants and dialysis against the binding buffer in presence of His-P (N variants monomeric); Ni-NTA agarose, eluted with 250 mM imidazole
T1 construct: Chandipura virus nucleocapsid protein N, residues 1-320; also called N(1–320)^0 (monomer after DOC treatment); source: E. coli BL21(DE3) or BL21(DE3)pLysS, purified (anion exchange, MonoQ 5/50 GL)
T1 sequence: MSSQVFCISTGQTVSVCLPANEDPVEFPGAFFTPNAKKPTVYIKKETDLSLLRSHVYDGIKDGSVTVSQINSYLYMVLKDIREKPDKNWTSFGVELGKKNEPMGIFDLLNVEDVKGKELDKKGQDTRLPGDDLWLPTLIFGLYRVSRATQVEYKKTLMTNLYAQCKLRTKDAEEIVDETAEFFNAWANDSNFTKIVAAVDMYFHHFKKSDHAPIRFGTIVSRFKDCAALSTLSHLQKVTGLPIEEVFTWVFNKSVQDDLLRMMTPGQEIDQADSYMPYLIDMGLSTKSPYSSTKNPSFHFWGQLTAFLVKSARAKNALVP

[2] = molecular target: T2, N(1/180–265/422), bacterially expressed (Chandipura virus, UniProt P11211 1-422, N(1/180–265/422)); assay: as above
T2 construct: also called middle deletant; source: E. coli BL21(DE3) or BL21(DE3)pLysS, purified (anion exchange, MonoQ 5/50 GL)
T2 sequence: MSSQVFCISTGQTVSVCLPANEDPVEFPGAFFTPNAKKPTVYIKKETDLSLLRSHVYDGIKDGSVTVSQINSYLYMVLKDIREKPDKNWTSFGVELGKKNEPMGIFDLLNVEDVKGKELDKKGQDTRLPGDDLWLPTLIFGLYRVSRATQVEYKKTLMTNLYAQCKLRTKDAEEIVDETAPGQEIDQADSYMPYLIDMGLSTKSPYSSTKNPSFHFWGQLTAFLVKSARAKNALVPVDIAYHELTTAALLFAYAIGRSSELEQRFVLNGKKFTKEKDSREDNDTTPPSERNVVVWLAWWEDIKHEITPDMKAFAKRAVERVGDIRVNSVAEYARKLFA

[3] = molecular target: T3, N(48–422), bacterially expressed (Chandipura virus, UniProt P11211 48-422); assay: pull-down; His-tag co-elution: N proteins not treated with DOC incubated with 6×His-P in 50 mM Tris-Cl pH 8, 100 mM NaCl, 0.1% Triton X-100, 10 mM imidazole, 30 min at 4°C; bound to Ni-NTA agarose, eluted with 250 mM imidazole
T3 construct: source: E. coli BL21(DE3) or BL21(DE3)pLysS, purified (anion exchange, MonoQ 5/50 GL)
T3 sequence: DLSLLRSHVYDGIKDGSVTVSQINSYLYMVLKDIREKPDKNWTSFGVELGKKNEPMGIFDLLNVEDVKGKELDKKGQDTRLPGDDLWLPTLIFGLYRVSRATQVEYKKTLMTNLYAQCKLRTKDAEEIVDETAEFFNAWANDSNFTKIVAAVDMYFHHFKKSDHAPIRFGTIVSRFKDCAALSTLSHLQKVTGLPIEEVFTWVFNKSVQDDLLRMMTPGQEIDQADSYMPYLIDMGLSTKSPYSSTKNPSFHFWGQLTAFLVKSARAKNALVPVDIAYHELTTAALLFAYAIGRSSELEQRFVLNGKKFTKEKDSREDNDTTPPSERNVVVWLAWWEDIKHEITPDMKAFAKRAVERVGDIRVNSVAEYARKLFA

[4] = molecular target: T4, Chandipura virus nucleocapsid protein (N), wild-type, untagged, bacterially expressed (Chandipura virus, UniProt P11211 1-422); assay: as above
T4 construct: Chandipura virus nucleocapsid protein N, full-length untagged (pET3a-NC); Oligomeric (nucleocapsid-like rings) as purified; monomeric after 1% DOC; also called CHPV N; wild-type N
T4 sequence: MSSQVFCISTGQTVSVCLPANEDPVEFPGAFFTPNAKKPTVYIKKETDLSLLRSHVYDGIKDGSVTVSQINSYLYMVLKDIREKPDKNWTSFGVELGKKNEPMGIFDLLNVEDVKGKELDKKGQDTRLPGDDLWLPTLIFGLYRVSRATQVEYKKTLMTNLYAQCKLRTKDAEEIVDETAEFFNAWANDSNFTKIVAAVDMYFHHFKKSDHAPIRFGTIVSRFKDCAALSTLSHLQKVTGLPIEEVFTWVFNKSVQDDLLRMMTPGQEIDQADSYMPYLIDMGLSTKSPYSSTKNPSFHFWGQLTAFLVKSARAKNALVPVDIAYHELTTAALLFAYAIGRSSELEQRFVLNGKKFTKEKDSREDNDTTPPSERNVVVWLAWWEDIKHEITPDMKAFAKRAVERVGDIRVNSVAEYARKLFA

[5] = molecular target: T5, N(22–422), bacterially expressed (Chandipura virus, UniProt P11211 22-422); assay: as above
T5 construct: source: E. coli BL21(DE3) or BL21(DE3)pLysS, purified (anion exchange, MonoQ 5/50 GL)
T5 sequence: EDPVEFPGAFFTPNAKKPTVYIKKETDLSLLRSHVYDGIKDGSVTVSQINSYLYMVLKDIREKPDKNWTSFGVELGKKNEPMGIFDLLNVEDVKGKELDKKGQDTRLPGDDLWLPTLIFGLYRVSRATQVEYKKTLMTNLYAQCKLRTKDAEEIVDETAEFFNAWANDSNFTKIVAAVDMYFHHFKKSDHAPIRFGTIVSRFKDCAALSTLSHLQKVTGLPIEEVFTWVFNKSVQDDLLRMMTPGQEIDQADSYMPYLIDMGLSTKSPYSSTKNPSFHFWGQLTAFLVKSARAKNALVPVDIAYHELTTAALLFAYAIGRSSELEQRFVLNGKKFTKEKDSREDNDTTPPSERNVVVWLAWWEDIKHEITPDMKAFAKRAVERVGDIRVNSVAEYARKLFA

[6] = molecular target: T6, N(1–390), bacterially expressed (Chandipura virus, UniProt P11211 1-390); assay: as above
T6 construct: Chandipura virus nucleocapsid protein N, residues 1-390; source: E. coli BL21(DE3) or BL21(DE3)pLysS, purified (anion exchange, MonoQ 5/50 GL)
T6 sequence: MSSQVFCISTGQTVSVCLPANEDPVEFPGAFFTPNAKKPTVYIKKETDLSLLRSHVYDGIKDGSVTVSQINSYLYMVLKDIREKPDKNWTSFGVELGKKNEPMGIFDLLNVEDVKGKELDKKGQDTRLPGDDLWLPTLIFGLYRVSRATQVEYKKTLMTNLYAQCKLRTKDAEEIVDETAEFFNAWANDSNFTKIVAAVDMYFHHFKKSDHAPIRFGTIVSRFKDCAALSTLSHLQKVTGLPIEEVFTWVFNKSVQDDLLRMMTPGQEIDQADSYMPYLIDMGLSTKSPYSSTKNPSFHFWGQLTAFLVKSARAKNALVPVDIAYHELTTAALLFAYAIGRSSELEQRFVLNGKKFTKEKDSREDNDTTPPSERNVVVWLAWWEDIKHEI

Measured: binding result

B1: N-terminal six histidine tagged P protein of Chandipura virus (His-P) (natural protein)
chain: MEDSQLYQALKNYPKLQDTLDSIENLEDDTKSEPSECGSPTERGIPSYYLAEELDECEEEDSEEDDDNLPTEIPDPPTVDMLEAIMEDEIDDTAYQVHFEAKQTWKPVIETGGNERGKFTLSVPQNLSALQLLQWETGIHALAERLGGCRLLQISTRGTRDGIEFTVRETPCVSPASDPIPSTSRSSSIASNVSTRQTESPGSKSNTSLGIPEAPANLIDMGAIDKEFILAAISPSDPPYKNTLRNLFGSGDSFEQYNQTGIYSLKELVIAGLKRKGIYNRIRIRCHLEPQFN
notes: Chandipura virus phosphoprotein P, full length (pET20b-P); pET20b usually adds a C-terminal His tag (surmise); also called 6×His-P; pET20b-P; source: bacterially expressed, purified (Ni-NTA agarose); not shown: His6, N-terminal, kept
binds: all assays above
